The text below walks through data of the supplement of paper PMC10567573.

B1: TLE6 (parent)
chain: FWHDTLTEQLWRIFAGVHDEKAKP
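Further: lentivirally expressed fusions sorted by FACS into six bins by GFP to DsRed ratio, PSI derived from sequencing read proportions per bin multiplied by bin number.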

The variants in the data set derive from B1. Put plainly: protein stability index of a GFP-peptide fusion (GPS, HEK-293T) (PSI 1-6); higher = more stable. Particulars: c terminus: a fixed tail appended.
FWHDQLTEQLWRIFAGVHDEKAKP [T5Q]: the protein stability index worked out at 1.22.
For FWHDFLTEQLWRIFAGVHDEKAKP [T5F], the protein stability index worked out at 2.25.
As for FWHDVLTEQLWRIFAGVHDEKAKP [T5V], the figure is 2.62.
For the variant FWHDDLTEQLWRIFAGVHDEKAKP [T5D], the protein stability index turned out to be 2.13.
Turning to FWHDALTEQLWRIFAGVHDEKAKP [T5A], the protein stability index turned out to be 1.25.
For the variant FWHDMLTEQLWRIFAGVHDEKAKP [T5M], the protein stability index was 1.96.
Turning to FWHDCLTEQLWRIFAGVHDEKAKP [T5C], the protein stability index stood at 1.34.
Consider FWHDILTEQLWRIFAGVHDEKAKP [T5I], for which the protein stability index came to 2.26.
As for FWHDWLTEQLWRIFAGVHDEKAKP [T5W], the figure is 1.46.
Under FWHDGLTEQLWRIFAGVHDEKAKP [T5G] stands 1.46; under FWHDYLTEQLWRIFAGVHDEKAKP [T5Y], 2.35; under FWHDLLTEQLWRIFAGVHDEKAKP [T5L], 1.97.
Turning to FWHDSLTEQLWRIFAGVHDEKAKP [T5S], the protein stability index was found to be 1.98.
Under FWHDKLTEQLWRIFAGVHDEKAKP [T5K] stands 2.78; under FWHDRLTEQLWRIFAGVHDEKAKP [T5R], 1.53; under FWHDELTEQLWRIFAGVHDEKAKP [T5E], 1.91.
Under FWHDPLTEQLWRIFAGVHDEKAKP [T5P] stands 2.73; under FWHDHLTEQLWRIFAGVHDEKAKP [T5H], 2.23.
As for FWHDNLTEQLWRIFAGVHDEKAKP [T5N], the figure is 2.23.
Take FWHDTLTESLWRIFAGVHDEKAKP [Q9S]: the protein stability index was found to be 2.04.
Turning to FWHDTLTECLWRIFAGVHDEKAKP [Q9C], the protein stability index worked out at 3.67.
As for FWHDTLTEFLWRIFAGVHDEKAKP [Q9F], the figure is 1.97; as for FWHDTLTELLWRIFAGVHDEKAKP [Q9L], 1.79; as for FWHDTLTEKLWRIFAGVHDEKAKP [Q9K], 1.51.
FWHDTLTEILWRIFAGVHDEKAKP [Q9I]: the protein stability index worked out at 2.55.
As for FWHDTLTETLWRIFAGVHDEKAKP [Q9T], the protein stability index came out at 2.38.
On to FWHDTLTEHLWRIFAGVHDEKAKP [Q9H], for which the protein stability index is 2.59.
Under FWHDTLTEYLWRIFAGVHDEKAKP [Q9Y] stands 1.65.
As for FWHDTLTERLWRIFAGVHDEKAKP [Q9R], the figure is 2.48; as for FWHDTLTEVLWRIFAGVHDEKAKP [Q9V], 4.83; as for FWHDTLTEGLWRIFAGVHDEKAKP [Q9G], 2.65.
As to FWHDTLTEALWRIFAGVHDEKAKP [Q9A], the protein stability index was 3.78.
Take FWHDTLTENLWRIFAGVHDEKAKP [Q9N]: the protein stability index turned out to be 2.45.
With FWHDTLTEWLWRIFAGVHDEKAKP [Q9W], the protein stability index is 2.79.
As for FWHDTLTEDLWRIFAGVHDEKAKP [Q9D], the figure is 1.97.
In the case of FWHDTLTEELWRIFAGVHDEKAKP [Q9E], the protein stability index is 1.58.
Under FWHDTLTEPLWRIFAGVHDEKAKP [Q9P] stands 2.69; under FWHDTLTEMLWRIFAGVHDEKAKP [Q9M], 1.74; under FWADTLTEQLWRIFAGVHDEKAKP [H3A], 3.32.
Under FWPDTLTEQLWRIFAGVHDEKAKP [H3P] stands 2.41; under FWSDTLTEQLWRIFAGVHDEKAKP [H3S], 1.72; under FWWDTLTEQLWRIFAGVHDEKAKP [H3W], 3.07.
In the case of FWEDTLTEQLWRIFAGVHDEKAKP [H3E], the protein stability index was 2.47.
Under FWTDTLTEQLWRIFAGVHDEKAKP [H3T] stands 2.75.
As for FWYDTLTEQLWRIFAGVHDEKAKP [H3Y], the figure is 1.91; as for FWCDTLTEQLWRIFAGVHDEKAKP [H3C], 1.95; as for FWMDTLTEQLWRIFAGVHDEKAKP [H3M], 2.25.
In the case of FWGDTLTEQLWRIFAGVHDEKAKP [H3G], the protein stability index stood at 1.82.
For FWIDTLTEQLWRIFAGVHDEKAKP [H3I], the protein stability index came to 2.7.
Consider FWKDTLTEQLWRIFAGVHDEKAKP [H3K], for which the protein stability index is 1.82.
As for FWFDTLTEQLWRIFAGVHDEKAKP [H3F], the protein stability index turned out to be 1.96.
As for FWDDTLTEQLWRIFAGVHDEKAKP [H3D], the figure is 2.16; as for FWNDTLTEQLWRIFAGVHDEKAKP [H3N], 2.7.
FWRDTLTEQLWRIFAGVHDEKAKP [H3R]: the protein stability index came to 1.88.
As for FWLDTLTEQLWRIFAGVHDEKAKP [H3L], the figure is 1.9; as for FWQDTLTEQLWRIFAGVHDEKAKP [H3Q], 1.69; as for FWVDTLTEQLWRIFAGVHDEKAKP [H3V], 1.65.
In the case of FWHDTLEEQLWRIFAGVHDEKAKP [T7E], the protein stability index was 1.42.
Under FWHDTLMEQLWRIFAGVHDEKAKP [T7M] stands 2.19; under FWHDTLWEQLWRIFAGVHDEKAKP [T7W], 2; under FWHDTLLEQLWRIFAGVHDEKAKP [T7L], 2.3.
Under FWHDTLDEQLWRIFAGVHDEKAKP [T7D] stands 2.01; under FWHDTLFEQLWRIFAGVHDEKAKP [T7F], 2.03; under FWHDTLKEQLWRIFAGVHDEKAKP [T7K], 2.16.
As to FWHDTLNEQLWRIFAGVHDEKAKP [T7N], the protein stability index amounted to 1.36.
On to FWHDTLPEQLWRIFAGVHDEKAKP [T7P], for which the protein stability index was found to be 2.01.
Consider FWHDTLGEQLWRIFAGVHDEKAKP [T7G], for which the protein stability index was determined as 2.28.
As to FWHDTLIEQLWRIFAGVHDEKAKP [T7I], the protein stability index worked out at 2.04.
Consider FWHDTLYEQLWRIFAGVHDEKAKP [T7Y], for which the protein stability index was 2.31.
Under FWHDTLAEQLWRIFAGVHDEKAKP [T7A] stands 1.92.
As for FWHDTLHEQLWRIFAGVHDEKAKP [T7H], the protein stability index amounted to 2.24.
As for FWHDTLCEQLWRIFAGVHDEKAKP [T7C], the protein stability index was 3.13.
FWHDTLVEQLWRIFAGVHDEKAKP [T7V]: the protein stability index was 1.86.
As for FWHDTLQEQLWRIFAGVHDEKAKP [T7Q], the figure is 2.46.
Take FWHDTLSEQLWRIFAGVHDEKAKP [T7S]: the protein stability index was 2.07.
For the variant FWHDTLREQLWRIFAGVHDEKAKP [T7R], the protein stability index worked out at 1.89.
As for FWHDTCTEQLWRIFAGVHDEKAKP [L6C], the figure is 1.97; as for FWHDTWTEQLWRIFAGVHDEKAKP [L6W], 1.27.
As to FWHDTQTEQLWRIFAGVHDEKAKP [L6Q], the protein stability index amounted to 2.31.
FWHDTNTEQLWRIFAGVHDEKAKP [L6N]: the protein stability index turned out to be 2.31.
Under FWHDTYTEQLWRIFAGVHDEKAKP [L6Y] stands 1.11.
Under FWHDTPTEQLWRIFAGVHDEKAKP [L6P] stands 1.63; under FWHDTITEQLWRIFAGVHDEKAKP [L6I], 2.36.
As for FWHDTRTEQLWRIFAGVHDEKAKP [L6R], the figure is 2.53; as for FWHDTSTEQLWRIFAGVHDEKAKP [L6S], 2.66.
FWHDTETEQLWRIFAGVHDEKAKP [L6E]: the protein stability index was found to be 1.91.
Under FWHDTFTEQLWRIFAGVHDEKAKP [L6F] stands 1.58.
As for FWHDTHTEQLWRIFAGVHDEKAKP [L6H], the figure is 2.35; as for FWHDTVTEQLWRIFAGVHDEKAKP [L6V], 1.75.
Under FWHDTTTEQLWRIFAGVHDEKAKP [L6T] stands 1.81; under FWHDTGTEQLWRIFAGVHDEKAKP [L6G], 1.77; under FWHDTATEQLWRIFAGVHDEKAKP [L6A], 2.67.
As for FWHDTMTEQLWRIFAGVHDEKAKP [L6M], the protein stability index was 1.85.
Regarding FWHDTKTEQLWRIFAGVHDEKAKP [L6K], the protein stability index is 2.4.
